Measured values: doi:10.1101/2024.05.08.593097
Like-named read-outs stand apart in the source and are kept apart here.

What was measured:
[1] = target: R358E/K361E-CCaCalpL (Candidatus Cloacimonas acidaminovorans strain Evry)
[2] = target: T1, CalpL (CCaCalpL, SAVED-Lon protease) (Candidatus Cloacimonas acidaminovorans, UniProt B0VHB4 1-506); test: cryo-EM structure
T1 sequence: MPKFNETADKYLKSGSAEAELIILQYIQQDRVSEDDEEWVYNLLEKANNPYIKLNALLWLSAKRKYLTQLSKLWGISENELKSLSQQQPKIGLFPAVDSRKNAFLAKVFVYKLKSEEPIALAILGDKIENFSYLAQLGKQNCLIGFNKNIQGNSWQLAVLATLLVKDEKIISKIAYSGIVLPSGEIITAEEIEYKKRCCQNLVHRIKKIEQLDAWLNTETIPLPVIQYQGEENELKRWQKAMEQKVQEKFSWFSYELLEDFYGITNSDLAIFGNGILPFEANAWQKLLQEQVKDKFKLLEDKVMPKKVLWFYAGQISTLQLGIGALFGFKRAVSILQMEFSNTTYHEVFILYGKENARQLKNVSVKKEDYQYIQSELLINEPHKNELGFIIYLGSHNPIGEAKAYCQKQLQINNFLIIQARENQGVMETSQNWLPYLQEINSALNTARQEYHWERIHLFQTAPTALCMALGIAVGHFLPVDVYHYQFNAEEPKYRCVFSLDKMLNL

[3] = target: T1, CalpL (CCaCalpL, SAVED-Lon protease); test: cryo-EM structure; remark: listed apart in the source
[4] = target: T1, CalpL (CCaCalpL, SAVED-Lon protease); test: cryo-EM structure; remark: listed apart in the source

Molecule: R358E/K361E-CCaCalpL (enzyme)
- ring nuclease activity (cA4 cleavage), reduction against wt-CCaCalpL [1]: > 100 fold

Molecule: AAAA (structured_RNA, cyclic tetra-adenylate, 3'-5' linked ring closed by phosphodiester) [cA4]
- binding result [2]: binds

Molecule: AAAA (ssRNA, 2',3'-cyclic phosphate at 3' end) [A4>p]
- binding result [3]: binds

Molecule: AAAA (ssRNA, 3'-phosphate) [A4p]
- binding result [4]: binds
